In IntAct's records for PubMed 20980406:

B1: Band 3 anion transport protein (Homo sapiens), P02730 (parent)
chain: MEELQDDYEDMMEENLEQEEYEDPDIPESQMEEPAAHDTEATATDYHTTSHPGTHKVYVELQELVMDEKNQELRWMEAARWVQLEENLGENGAWGRPHLSHLTFWSLLELRRVFTKGTVLLDLQETSLAGVANQLLDRFIFEDQIRPQDREELLRALLLKHSHAGELEALGGVKPAVLTRSGDPSQPLLPQHSSLETQLFCEQGDGGTEGHSPSGILEKIPPDSEATLVLVGRADFLEQPVLGFVRLQEAAELEAVELPVPIRFLFVLLGPEAPHIDYTQLGRAAATLMSERVFRIDAYMAQSRGELLHSLEGFLDCSLVLPPTDAPSEQALLSLVPVQRELLRRRYQSSPAKPDSSFYKGLDLNGGPDDPLQQTGQLFGGLVRDIRRRYPYYLSDITDAFSPQVLAAVIFIYFAALSPAITFGGLLGEKTRNQMGVSELLISTAVQGILFALLGAQPLLVVGFSGPLLVFEEAFFSFCETNGLEYIVGRVWIGFWLILLVVLVVAFEGSFLVRFISRYTQEIFSFLISLIFIYETFSKLIKIFQDHPLQKTYNYNVLMVPKPQGPLPNTALLSLVLMAGTFFFAMMLRKFKNSSYFPGKLRRVIGDFGVPISILIMVLVDFFIQDTYTQKLSVPDGFKVSNSSARGWVIHPLGLRSEFPIWMMFASALPALLVFILIFLESQITTLIVSKPERKMVKGSGFHLDLLLVVGMGGVAALFGMPWLSATTVRSVTHANALTVMGKASTPGAAAQIQEVKEQRISGLLVAVLVGLSILMEPILSRIPLAVLFGIFLYMGVTSLSGIQLFDRILLLFKPPKYHPDVPYVKRVKTWRMHLFTGIQIICLAVLWVVKSTPASLALPFVLILTVPLRRVLLPLIFRNVELQCLDADDAKATFDEEEGRDEYDEVAMPV

Variants of: B1
Conditions: with g3p_rabit GAPDH

| effect of a mutation on the interaction | Variant |
| --- | --- |
| decreasing interaction strength | D902A;E903A |
| decreasing interaction strength | Y904A |
| with no effect | D905A;E906A |
